According to the supplement of paper PMC10065799, “High-throughput profiling of sequence recognition by tyrosine kinases and SH2 domains using bacterial peptide display” (eLife, 2023):

Target: Grb2 SH2 (UniProt P62993)
Test: SH2 binding enrichment of the phosphorylated peptide, bacterial display (enrichment ratio); higher = better substrate or ligand; peptides without Tyr show the background
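Throughout, for SH2 binding enrichment of the phosphorylated peptide, bacterial display: peptide library displayed on the E. coli surface as eCPX fusions, selected cells deep-sequenced, score is each peptide's frequency after selection divided by its frequency in the input.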
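Throughout, for phosphorylation enrichment, bacterial display: 11-residue human phosphosite peptides and single-mutation variants displayed on the E. coli surface, counted by deep sequencing, each peptide's frequency after selection divided by its frequency in the unselected input library; frequency after pTyr selection over input frequency; kinase dosed for 20-30% of maximal phosphorylation in three min.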

| Sequence | SH2 binding enrichment |
| --- | --- |
| STFVPCEIKVQ [L1CAM_Y784_Y784C] | 0.819 |
| NPQKSYFILLF [WAS_Y83_R86L_YF] | 1.27 |
| YGMQLYQKYMH [GRB14_Y347_N349K] | 0.824 |
| IMAFFYMCDRA [CASD1_Y382_YF] | 0.819 |
| DLEKTYNTFRS [B4GALNT2_Y538_A533D_YF] | 0.846 |
| YDGKEYDPVEA [MAPRE2_Y167] | 0.912 |
| NVLPEYKLQAP [KCNH2_Y388_D383N] | 0.906 |
| RAQIRYAQEHD [NSD1_Y1987_R1984Q] | 1.13 |
| RSSKMYPKTRS [LPL_Y329_L330P] | 0.916 |
| IEELTYIIKQD [STX5_Y137] | 0.712 |
| GRVFVYRLSEQ [ITGAE_Y551_YF] | 1.38 |
| IYHLSYLHNCE [PDE6B_Y227] | 0.959 |
| PGAPAYRVLME [MYO5A_Y1245] | 0.728 |
| QRIHNYFEHRF [HCN4_Y554_D553N_YF] | 1.16 |

Other lines, results leading:

| SH2 binding enrichment | Sequence |
| --- | --- |
| 1.55 | PRIHSYRGHLW [VHL_Y112_R107P] |
| 1.78 | RELSWYRGQRP [HESX1_Y106_R109Q] |
| 1.11 | PADSGYPAYLG [ATP6V1A_Y374] |
| 0.828 | SFPSTYRFERG [INPPL1_Y661_P659S_YF] |
| 1.24 | RAIGYYSATSK [FAM120A_Y328] |
| 0.797 | EEEPVYKAEPE [HCLS1_Y360_E361K] |
| 1.05 | EEAAGYAQESQ [CAMKV_Y491] |
| 0.933 | RPFFLYVAFHN [SGSH_Y174_D179N] |
| 1.26 | RFLKDYGEFEV [GINS1_Y156_C152Y_YF] |
| 1.03 | FGAHNHHPLPV [OAT_Y55_Y55H_YF] |
| 0.881 | ERSMSYSDESR [SMG1_Y143] |
| 1.39 | ARAHKYHGGGG [HBB_Y146_L142R] |
| 1.08 | LTKQEYDEAGP [ACTA1_Y364_I359L] |
| 1.02 | KDPPDYKYQPR [SOX9_Y172_H169P] |
| 0.888 | VRTGIYHGGEP [PIK3CA_Y361] |
| 0.828 | PLGVLYKVKVY [PTS_Y128_V124L] |
| 0.665 | HKANEYYPVVI [ADAMTS18_Y764_L769I] |
| 0.714 | CDGKEYDPVEA [MAPRE2_Y167_Y162C] |
| 1.85 | AVARPYHIQKW [ACSBG1_Y677_A673V] |

Target: SHP2-C SH2
Test: as above

| Sequence | SH2 binding enrichment |
| --- | --- |
| STFVPCEIKVQ [L1CAM_Y784_Y784C] | 0.578 |
| NPQKSYFILLF [WAS_Y83_R86L_YF] | 0.944 |
| YGMQLYQKYMH [GRB14_Y347_N349K] | 0.64 |
| IMAFFYMCDRA [CASD1_Y382_YF] | 0.825 |
| DLEKTYNTFRS [B4GALNT2_Y538_A533D_YF] | 0.629 |
| YDGKEYDPVEA [MAPRE2_Y167] | 0.502 |
| NVLPEYKLQAP [KCNH2_Y388_D383N] | 0.564 |
| RAQIRYAQEHD [NSD1_Y1987_R1984Q] | 0.725 |
| RSSKMYPKTRS [LPL_Y329_L330P] | 0.556 |
| IEELTYIIKQD [STX5_Y137] | 0.779 |
| GRVFVYRLSEQ [ITGAE_Y551_YF] | 1.87 |
| IYHLSYLHNCE [PDE6B_Y227] | 1 |
| PGAPAYRVLME [MYO5A_Y1245] | 0.71 |
| QRIHNYFEHRF [HCN4_Y554_D553N_YF] | 1.22 |

Now from value to sequence:

| SH2 binding enrichment | Sequence |
| --- | --- |
| 1.86 | PRIHSYRGHLW [VHL_Y112_R107P] |
| 0.785 | RELSWYRGQRP [HESX1_Y106_R109Q] |
| 0.62 | PADSGYPAYLG [ATP6V1A_Y374] |
| 0.655 | SFPSTYRFERG [INPPL1_Y661_P659S_YF] |
| 1.16 | RAIGYYSATSK [FAM120A_Y328] |
| 0.509 | EEEPVYKAEPE [HCLS1_Y360_E361K] |
| 0.718 | EEAAGYAQESQ [CAMKV_Y491] |
| 0.515 | RPFFLYVAFHN [SGSH_Y174_D179N] |
| 0.749 | RFLKDYGEFEV [GINS1_Y156_C152Y_YF] |
| 1.14 | FGAHNHHPLPV [OAT_Y55_Y55H_YF] |
| 0.714 | ERSMSYSDESR [SMG1_Y143] |
| 0.799 | ARAHKYHGGGG [HBB_Y146_L142R] |
| 0.874 | LTKQEYDEAGP [ACTA1_Y364_I359L] |
| 1.02 | KDPPDYKYQPR [SOX9_Y172_H169P] |
| 0.588 | VRTGIYHGGEP [PIK3CA_Y361] |
| 0.817 | PLGVLYKVKVY [PTS_Y128_V124L] |
| 1.06 | HKANEYYPVVI [ADAMTS18_Y764_L769I] |
| 0.891 | CDGKEYDPVEA [MAPRE2_Y167_Y162C] |
| 1.31 | AVARPYHIQKW [ACSBG1_Y677_A673V] |

Target: c-Src SH2
Test: as above

| Sequence | SH2 binding enrichment |
| --- | --- |
| STFVPCEIKVQ [L1CAM_Y784_Y784C] | 0.497 |
| NPQKSYFILLF [WAS_Y83_R86L_YF] | 0.573 |
| YGMQLYQKYMH [GRB14_Y347_N349K] | 0.548 |
| IMAFFYMCDRA [CASD1_Y382_YF] | 0.641 |
| DLEKTYNTFRS [B4GALNT2_Y538_A533D_YF] | 0.506 |
| YDGKEYDPVEA [MAPRE2_Y167] | 0.604 |
| NVLPEYKLQAP [KCNH2_Y388_D383N] | 0.455 |
| RAQIRYAQEHD [NSD1_Y1987_R1984Q] | 0.409 |
| RSSKMYPKTRS [LPL_Y329_L330P] | 0.486 |
| IEELTYIIKQD [STX5_Y137] | 0.404 |
| GRVFVYRLSEQ [ITGAE_Y551_YF] | 0.857 |
| IYHLSYLHNCE [PDE6B_Y227] | 0.792 |
| PGAPAYRVLME [MYO5A_Y1245] | 0.422 |
| QRIHNYFEHRF [HCN4_Y554_D553N_YF] | 1.31 |

Other lines, results leading:

| SH2 binding enrichment | Sequence |
| --- | --- |
| 1.89 | PRIHSYRGHLW [VHL_Y112_R107P] |
| 0.597 | RELSWYRGQRP [HESX1_Y106_R109Q] |
| 0.614 | PADSGYPAYLG [ATP6V1A_Y374] |
| 0.466 | SFPSTYRFERG [INPPL1_Y661_P659S_YF] |
| 1.83 | RAIGYYSATSK [FAM120A_Y328] |
| 0.569 | EEEPVYKAEPE [HCLS1_Y360_E361K] |
| 0.577 | EEAAGYAQESQ [CAMKV_Y491] |
| 0.478 | RPFFLYVAFHN [SGSH_Y174_D179N] |
| 0.43 | RFLKDYGEFEV [GINS1_Y156_C152Y_YF] |
| 0.818 | FGAHNHHPLPV [OAT_Y55_Y55H_YF] |
| 0.715 | ERSMSYSDESR [SMG1_Y143] |
| 0.902 | ARAHKYHGGGG [HBB_Y146_L142R] |
| 8.7 | LTKQEYDEAGP [ACTA1_Y364_I359L] |
| 0.503 | KDPPDYKYQPR [SOX9_Y172_H169P] |
| 0.51 | VRTGIYHGGEP [PIK3CA_Y361] |
| 0.484 | PLGVLYKVKVY [PTS_Y128_V124L] |
| 0.587 | HKANEYYPVVI [ADAMTS18_Y764_L769I] |
| 0.615 | CDGKEYDPVEA [MAPRE2_Y167_Y162C] |
| 1.27 | AVARPYHIQKW [ACSBG1_Y677_A673V] |

Target: Fyn (UniProt P06241)
Test: phosphorylation enrichment, bacterial display (enrichment ratio); higher = better substrate or ligand; peptides without Tyr show the background

Fyn, sequence (P06241 whole entry, looked up): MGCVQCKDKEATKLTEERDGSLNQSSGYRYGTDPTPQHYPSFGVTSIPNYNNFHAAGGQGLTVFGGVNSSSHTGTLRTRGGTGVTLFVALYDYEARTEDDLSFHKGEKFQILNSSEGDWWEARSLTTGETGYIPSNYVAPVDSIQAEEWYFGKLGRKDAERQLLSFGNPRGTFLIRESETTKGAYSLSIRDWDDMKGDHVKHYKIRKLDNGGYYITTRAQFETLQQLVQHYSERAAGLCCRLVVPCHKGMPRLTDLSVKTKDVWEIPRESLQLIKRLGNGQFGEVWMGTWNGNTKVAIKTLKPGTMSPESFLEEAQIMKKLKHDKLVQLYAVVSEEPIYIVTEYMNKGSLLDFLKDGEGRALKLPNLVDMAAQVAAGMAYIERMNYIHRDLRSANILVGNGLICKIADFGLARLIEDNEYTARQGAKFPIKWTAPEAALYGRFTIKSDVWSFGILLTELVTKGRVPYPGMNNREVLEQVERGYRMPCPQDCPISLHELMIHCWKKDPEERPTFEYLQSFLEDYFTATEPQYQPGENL

| Sequence | phosphorylation enrichment |
| --- | --- |
| PRIHSYRGHLW [VHL_Y112_R107P] | 0.611 |
| RELSWYRGQRP [HESX1_Y106_R109Q] | 0.505 |
| STFVPCEIKVQ [L1CAM_Y784_Y784C] | 0.49 |
| NPQKSYFILLF [WAS_Y83_R86L_YF] | 0.449 |
| PADSGYPAYLG [ATP6V1A_Y374] | 1.05 |
| SFPSTYRFERG [INPPL1_Y661_P659S_YF] | 0.39 |
| YGMQLYQKYMH [GRB14_Y347_N349K] | 1.31 |
| RAIGYYSATSK [FAM120A_Y328] | 0.502 |
| IMAFFYMCDRA [CASD1_Y382_YF] | 0.57 |
| EEEPVYKAEPE [HCLS1_Y360_E361K] | 0.675 |
| EEAAGYAQESQ [CAMKV_Y491] | 0.401 |
| RPFFLYVAFHN [SGSH_Y174_D179N] | 0.321 |
| RFLKDYGEFEV [GINS1_Y156_C152Y_YF] | 0.85 |
| FGAHNHHPLPV [OAT_Y55_Y55H_YF] | 0.369 |
| ERSMSYSDESR [SMG1_Y143] | 0.463 |
| DLEKTYNTFRS [B4GALNT2_Y538_A533D_YF] | 0.967 |
| ARAHKYHGGGG [HBB_Y146_L142R] | 0.312 |

| Sequence | phosphorylation enrichment |
| --- | --- |
| LTKQEYDEAGP [ACTA1_Y364_I359L] | 0.809 |
| YDGKEYDPVEA [MAPRE2_Y167] | 0.556 |
| KDPPDYKYQPR [SOX9_Y172_H169P] | 0.51 |
| NVLPEYKLQAP [KCNH2_Y388_D383N] | 0.508 |
| VRTGIYHGGEP [PIK3CA_Y361] | 0.568 |
| PLGVLYKVKVY [PTS_Y128_V124L] | 0.339 |
| HKANEYYPVVI [ADAMTS18_Y764_L769I] | 0.676 |
| RAQIRYAQEHD [NSD1_Y1987_R1984Q] | 0.633 |
| RSSKMYPKTRS [LPL_Y329_L330P] | 0.502 |
| IEELTYIIKQD [STX5_Y137] | 0.461 |
| GRVFVYRLSEQ [ITGAE_Y551_YF] | 0.534 |
| IYHLSYLHNCE [PDE6B_Y227] | 2.63 |
| CDGKEYDPVEA [MAPRE2_Y167_Y162C] | 0.598 |
| PGAPAYRVLME [MYO5A_Y1245] | 0.542 |
| AVARPYHIQKW [ACSBG1_Y677_A673V] | 0.391 |
| QRIHNYFEHRF [HCN4_Y554_D553N_YF] | 0.441 |
